The record followed here is article PMC4530576.

Like-named read-outs stand apart in the source and are kept apart here.

The target of series [1] is T1, Spen RRM domains (Spen RRMs) (UniProt Q96T58 335-620).
T1 sequence: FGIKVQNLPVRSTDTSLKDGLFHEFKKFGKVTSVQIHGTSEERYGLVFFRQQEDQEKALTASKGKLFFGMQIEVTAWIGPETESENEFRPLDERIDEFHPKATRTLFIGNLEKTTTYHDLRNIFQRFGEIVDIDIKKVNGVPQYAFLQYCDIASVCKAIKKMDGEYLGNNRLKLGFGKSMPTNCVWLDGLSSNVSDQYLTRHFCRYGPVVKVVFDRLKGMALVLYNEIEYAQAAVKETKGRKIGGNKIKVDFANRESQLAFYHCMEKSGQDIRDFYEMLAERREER
Kind of series: EMSA. (In EMSA bound probe runs differently from free probe, usually more slowly.)

For series [2], the target named is T1, Spen RRM domains (Spen RRMs). Kind of series: EMSA. The source holds these as a separate data set.

B1: XCR-XC dimer (Xist A-repeat dimer), synthetic (structured_RNA)
RNA: UUGCCCAUCGGGGCCUCGGAUACCUGCUUUAAAUUGCCCAUCGGGGCCUCGGAUACCUGCUUUAC
B1: in series [1], the binding result is listed as “binds”.

B2: H12-H13 SRA, synthetic (structured_RNA)
RNA: GCAGGUAUGUGAUGACAUCAGCCGACGCCUGGCACUGCUGCAGGAACAGUGGGCUGGAGGAAAGUUGUCAAUACCUGU
As to B2, the binding result in series [2] is given as “binds”.
